# Measurements reported in patent US7604970B2, “Variants of the PapM polypeptide of bacteria of the Streptomyces genus” (Aventis Pharma S.A., priority 2002, dated 2009).
# Substitutions are numbered along the chain they refer to. Where two headings read alike, the source gives them in different places.
# B1: 4-amino-L-phenylalanine (phenyl N)-methyltransferase (protein, UniProt P72542 1-292, looked up)
# 4-amino-L-phenylalanine/4-meth …: MTAAAPTLAQALDEATGQLTGAGITADAARADTRLLAAHACQVAPGDLDTCLAGPVPPRFWHYVRRRLTREPAERIVGHAYFMGHRFDLAPGVFVPKPETEEITRDAIARLEALVRRGTTAPLVVDLCAGPGTMAVTLARHVPAARVLGIELSQAAARAARRNARGTGARIVQGDARDAFPELSGTVDLVVTNPPYIPIGLRTSAPEVLEHDPPLALWAGEEGLGMIRAMERTAARLLAPGGVLLLEHGSYQLASVPALFRATGRWSHASSRPTCNDGCLTAVRNHTCAPPA
# B2: Mutant 49/66: doubly mutated PapM, Thr192 > Ile and Gly249 > Ser, plasmids pVRC718 / pVRC721 (protein, UniProt P72542 1-292, looked up, variant T192I G249S)
# 4-amino-L-phenylalanine/4-meth …: B1 4-amino-L-phenylalanine/4-meth … with T192I, G249S
# B3: Mutant 74D4: PapM variant clone, Gly249 > Ser (same substitution as mutant 49) (protein, UniProt P72542 1-292, looked up, variant G249S)
# 4-amino-L-phenylalanine/4-meth …: B1 4-amino-L-phenylalanine/4-meth … with G249S
# B4: Mutant 52: PapM variant Gly249 > Asp (protein, UniProt P72542 1-292, looked up, variant G249D)
# 4-amino-L-phenylalanine/4-meth …: B1 4-amino-L-phenylalanine/4-meth … with G249D
# B5: Mutant 45: PapM variant Thr274 > Ile (protein, UniProt P72542 1-292, looked up, variant T274I)
# 4-amino-L-phenylalanine/4-meth …: B1 4-amino-L-phenylalanine/4-meth … with T274I
# B6: Mutant 74D5: PapM variant clone, Met226 > Ile (same substitution as mutant 69) (protein, UniProt P72542 1-292, looked up, variant M226I)
# 4-amino-L-phenylalanine/4-meth …: B1 4-amino-L-phenylalanine/4-meth … with M226I
# B7: Mutant 69: PapM variant Met226 > Ile (protein, UniProt P72542 1-292, looked up, variant M226I)
# 4-amino-L-phenylalanine/4-meth …: B1 4-amino-L-phenylalanine/4-meth … with M226I
# Columns and labels:
# [1] = Km and Vmax of purified PapM methylases, methylation 2; assay type: biochemical, S. pristinaespiralis; conditions: for Km2 / Vm2 / Vm2/Km2 (enzyme efficiency, methylation 2): Table 7; for Vm2 (MMPAPA) / Km2 (MMPAPA): purified enzyme, 2 mM SAM; for Km2 (MMPAPA): substrate 0.1 to 60 mM
# Experimental: (§1) The enzyme fractions to be assayed (1 to 20 units) are incubated for 30 min at 27° C. in a total volume of 200 μl of 50 mM bis-tris-propane buffer, pH 6.8, containing SAM (200 μM) the methyl group of which is radioactively labeled with the carbon 14 isotope (2 Ci/mol), in the presence of 4-amino-L-phenylalanine (1 mM) for assaying methylation 1, or of 4-methylamino-L-alanine (2.5 mM) for assaying methylation 2.
# (§2) The reaction is stopped by adding 16 μl of 37% hydrochloric acid and then 20 μl of sodium heptanesulfonate at 240 g/l. After centrifugation, 150 μl of supernatant are injected into the HPLC system in the following gradient mode: • Mobile phase: Eluent A=1.2 g of heptanesulfonate+2.5 ml of glacial acetic acid+water (qs 1 000 ml). Eluent B=1.2 g of sodium heptanesulfonate+2.5 ml of glacial acetic acid+300 ml of acetonitrile+water (qs 1 000 ml). The gradient is produced in the following way: at t=0, 30% of eluent B; t=16 (min), 30% of eluent B; t=17 (min), 100% of eluent B; t=20 min, 100% of eluent B; t=21 min, 30% of eluent B; t=25 (min), 30% of eluent B. • Stationary phase: Nucleosil® C 18 5 μm×4.6 mm column (Macherey-Nagel)
# (§3) On leaving the column, the substrates and products of the enzyme reaction are quantified by absorption at 254 nm. This detection is coupled to an on-line radiochemical detection using a Berthold LB506 detector equipped with a solid scintillation cell of the GT400-U4 type. This makes it possible to specifically follow the incorporation of radioactive methyl groups into the reaction products.
# (§4) The unit of enzyme activity for methylation 1 (and also for methylation 2) is defined as the amount of enzyme required to incorporate 1 nmol of methyl group into 4-amino-L-phenylalanine (or into 4-methylamino-L-phenylalanine).
# (§5) The conditions for assaying the methylation activity are identical to those described in example 7-1, with the exception of the 2 mM concentration of SAM, the methyl group of which is radioactively labeled with the carbon 14 isotope (2 Ci/mol). Concentration ranges varying from 0.1 to 60 mM for each of the substrates 4-amino-L-phenylalanine for methylation 1 and 4-methylamino-L-phenylalanine for methylation 2 are prepared. For each concentration of each substrate, the reaction rate is measured and expressed in nmol converted per hour and per mg of proteins.
# (§6) The values of the kinetics constants are deduced from the Michaelis-Menten curves plotted using the Enzfiter software.
# [2] = Enzymatic screening: simultaneous assay of the two methylation activities of PapM (ratio r); assay type: biochemical, S. pristinaespiralis; conditions: for Ratio (r redetermined): 7 sequenced clones, experiment in which wild-type ratio was 0.40
# Description: The ratio of the respective rates V1 and V2 of methylation of L-PAPA and of L-MMPAPA is dependent on the kinetic parameters of PapM (Km1 and Vmax1 for L-PAPA, Km2 and Vmax2 for L-MMPAPA), and is also dependent on the respective concentrations S1 and S2 of L-PAPA and of L-MMPAPA, according to the formula: V1/V2=(Vmax1//Km1)[S1]/(Vmax2/Km2)[S2]
# Simultaneous measurement of the two rates of methylation V1 and V2 at fixed concentrations of S1 and S2 makes it possible to determine the ratio of the kinetic constants of PapM for L-PAPA and L-MMPAPA. This ratio is independent of the amount of PapM used in the assay. When the selectivity of the mutated PapM enzyme increases for L-PAPA, the ratio V1/V2 should increase and, conversely, this ratio should decrease when the mutated PapM enzyme preferentially methylates L-MMPAPA.
# Finally, in order to avoid small variations in Km and to, on the contrary, promote either large variations in Km or modifications in the Vmax values, the concentrations of L-PAPA and L-MMPAPA are fixed at approximately 6 times the Km in order to be under conditions of saturation. Under such conditions, with the wild-type PapM enzyme, the rate of methylation 1 and the rate of methylation 2 are virtually equal.
# The simultaneous assaying of the two methylation activities of PapM is described in example 7.1. This assaying of the methylase activities of PapM is carried out in the presence of 1.5 mM L-PAPA, 3 mM L-MMPAPA and […].
# The 96-well plates of the library of E. coli clones producing the mutated PapM enzymes, prepared as described in example 3, are thawed at 23° C. Next, 25 μl of mixture A are added to the 200 μl of the culture on LB medium contained in each well. Mixture A is obtained by adding successively (1) 3 ml of 50 mM Bis-Tris-Propane buffer, pH 10, in which have been dissolved 12 mg of L-PAPA, and 71 mg of (DL)-MMPAPA in dihydrochloride form and prepared as described in WO 96/01901-A1, (2) 0.7 ml of 4 mM SAM in water, (3) 0.7 ml of [^14C-Me]-SAM at 25 μCi/ml and 60 mCi/mmol (AMERSHAM), (4) 0.6 ml of 100 mM Bis-Tris-Propane buffer, pH 6.8, and (5) 56 mg of the disodium salt of EDTA. The amounts are given for the preparation of a 5 ml volume of mixture A. The plate is then sealed with an adhesive film, and then incubated at 27° C. for 2 hours. The reaction is stopped with 40 μl of a stop solution. The stop solution (for a volume of 4 ml) is obtained by mixing 2.2 ml of a 24 mg/ml sodium heptanesulfonate solution in water with 1.8 ml of concentrated hydrochloric acid. After centrifugation of the plates at 3 000 g for 5 min, approximately 100 μl of the supernatant of each well are analyzed by HPLC in the system described in example 7.1.
# For each well, the respective areas A1 and A2 of the MMPAPA and DMPAPA peaks derived from recording the radiochemical detection are integrated. A ratio r is then calculated in the following way: r=A1/(A1+A2) In the case of the wild-type PapM methylase, r=0.50±0.05.
# [3] = Ratios of kinetic constants and enzyme efficiencies, methylation 1 / methylation 2; assay type: biochemical, S. pristinaespiralis; conditions: for Ratio Km2/Km1 / Ratio Vm1/Vm2: Table 5; for Vm1 · Km2 / Vm2 · Km1 (ratio of enzyme efficiencies): Table 7
# Experimental: as §5, §6
# For each mutant form of the enzyme, the enzyme efficiency of each methylation reaction (methylation 1 and methylation 2) was determined. This efficiency is defined by the ratio Vm1/Km1 (methylation 1) or Vm2/Km2 (methylation 2).
# Then, for each form, the ratio of the enzyme efficiencies (methylation reaction 1/methylation reaction 2) was determined. This ratio is equal to Vm1.Km2/Vm2.Km1.
# [4] = Km and Vmax of purified PapM methylases, methylation 1; assay type: biochemical, S. pristinaespiralis; conditions: for Km1 / Vm1 / Vm1/Km1 (enzyme efficiency, methylation 1): Table 7; for Vm1 (PAPA) / Km1 (PAPA): purified enzyme, 2 mM SAM; for Km1 (PAPA): substrate 0.1 to 60 mM
# Experimental: as §1, §2, §3, §4, §5, §6
# [5] = Blanc et al., 1997, cited from earlier work
# [6] = Competition assay between the two substrates; assay type: biochemical, S. pristinaespiralis; conditions: both substrates present: 1 mM 4-amino-L-phenylalanine, 2 mM 4-methylamino-L-phenylalanine, 2 mM SAM
# Experimental: The ratio of the rates of conversion of the two competitive substrates is given by the formula: V1/V2=(Kcat1/Km1)[S1]/(Kcat2/Km2)[S2]
# The amount of substrate and of enzyme brought into play is thus avoided by taking care not to convert not more than 2% of each of the substrates.
# Using the same conditions for assaying the methylation activity as those described in example 7-1, with the exception of the concentration of SAM, which is 2 mM, and the methyl group of which is radioactively labeled with the carbon 14 isotope (2.5 Ci/mol), and with the simultaneous presence of the two substrates at the concentrations, for 4-amino-L-phenylalanine, of 1 mM and, for 4-methylamino-L-phenylalanine, of 2 mM, the rate of each of the reactions could thus be determined.
# The assays were carried out simultaneously on the mutants described in examples 4 to 6, using the same substrate solutions.
# [7] = Blanc et al., 1997, cited from earlier work; remark: listed apart in the source
molecule,measurement,setting,value
B1,Km2,[1],0.55
same,Vm2,[1],114 000
same,"Vm2/Km2 (enzyme efficiency, methylation 2)",[1],207 270
same,Vm2 (MMPAPA),[1],114 000 nmol/h/mg
same,Km2 (MMPAPA),[1],0.55 mM
same,Ratio (r redetermined),[2],0.40
same,ratio of the two methylation activities (r),"[2]; after recloning of papM genes into pMTL23, E. coli DH5α, same experiment as wild-type",0.40
same,ratio r=A1/(A1+A2) of MMPAPA and DMPAPA peak areas,"[2]; screening of E. coli cultures, 1.5 mM L-PAPA, 3 mM L-MMPAPA",0.50±0.05
same,"ratio of the enzyme efficiencies (methylation reaction 1/methylation reaction 2), Vm1.Km2/Vm2.Km1",[3],1.1
same,Ratio Km2/Km1,[3],1.1
same,Ratio Vm1/Vm2,[3],0.99
same,Vm1 · Km2 / Vm2 · Km1 (ratio of enzyme efficiencies),[3],1.08
same,Km1,[4],0.5
same,Vm1,[4],112 600
same,"Vm1/Km1 (enzyme efficiency, methylation 1)",[4],225 200
same,Vm1 (PAPA),[4],112 600 nmol/h/mg
same,Km1 (PAPA),[4],0.5 mM
same,maximum velocity (Vmax) for L-PAPA,[5],55 μmol per hour and per mg of PapM
same,Km,[5]; read-out: Michaelis constant (Km) for L-PAPA,240 µM
same,first methylation reaction relative to the second (selectivity),[6],catalyzes the two reactions in a similar manner
same,maximum velocity (Vmax) for L-MMPAPA,[7],71 μmol per hour and per mg of PapM
same,Km,[7]; read-out: Michaelis constant (Km) for L-MMPAPA,530 µM
B2,Km2,[1],22
same,Vm2,[1],9 100
same,"Vm2/Km2 (enzyme efficiency, methylation 2)",[1],410
same,Vm2 (MMPAPA),[1],9 100 nmol/h/mg
same,Km2 (MMPAPA),[1],22 mM
same,Ratio Km2/Km1,[3],2.5
same,Ratio Vm1/Vm2,[3],3.1
same,Vm1 · Km2 / Vm2 · Km1 (ratio of enzyme efficiencies),[3],7.58
same,Km1,[4],9
same,Vm1,[4],28 000
same,"Vm1/Km1 (enzyme efficiency, methylation 1)",[4],3 110
same,Vm1 (PAPA),[4],28 000 nmol/h/mg
same,Km1 (PAPA),[4],9 mM
same,first methylation reaction relative to the second (selectivity),[6],7 times
B3,Ratio (r redetermined),[2],0.63
B4,Ratio (r redetermined),[2],0.66
B5,Ratio (r redetermined),[2],0.52
B6,Ratio (r redetermined),[2],0.52
B7,Ratio (r redetermined),[2],0.51
